In PMC6983367 (Proceedings of the National Academy of Sciences of the …, 2020):
Blank lines part the entries; values can stand above or below the binder they belong to.

Biological target: bovine mitochondrial F1-ATPase β subunit (His-tagged) (bovine, UniProt P00829 47-528)
Experiment: dilution and ultrafiltration

Chain of bovine mitochondrial F1-ATPase β subunit (His-tagged) (P00829 47-528): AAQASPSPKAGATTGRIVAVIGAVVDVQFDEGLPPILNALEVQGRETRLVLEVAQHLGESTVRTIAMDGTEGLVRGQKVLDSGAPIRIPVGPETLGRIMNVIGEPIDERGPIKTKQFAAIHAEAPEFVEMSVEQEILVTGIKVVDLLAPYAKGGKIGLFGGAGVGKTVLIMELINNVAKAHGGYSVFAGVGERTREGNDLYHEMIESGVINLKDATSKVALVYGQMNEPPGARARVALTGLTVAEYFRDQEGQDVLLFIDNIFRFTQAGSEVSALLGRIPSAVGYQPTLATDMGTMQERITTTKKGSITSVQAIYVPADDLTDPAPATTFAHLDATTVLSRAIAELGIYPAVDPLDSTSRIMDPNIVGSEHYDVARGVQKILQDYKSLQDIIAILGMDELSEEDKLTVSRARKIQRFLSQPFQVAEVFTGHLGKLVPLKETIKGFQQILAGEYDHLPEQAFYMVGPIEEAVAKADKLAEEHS

binding result: binds
B1: bovine mitochondrial F1-ATPase γ subunit (γA99C, γS191C) (natural protein)
chain: ATLKDITRRLKSIKNIQKITKSMKMVAAAKYARAERELKPARVYGVGSLALYEKADIKTPEDKKKHLIIGVSSDRGLCGAIHSSVAKQMKSEAANLAACGKEVKIIGVGDKIRSILHRTHSDQFLVTFKEVGRRPPTFGDASVIALELLNSGYEFDEGSIIFNRFRSVISYKTEEKPIFSLDTISSAESMCIYDDIDADVLRNYQEYSLANIIYYSLKESTTSEQSARMTAMDNASKNASEMIDKLTLTFNRTRQAVITKELIEIISGAAALD

binding result: binds
B2: bovine mitochondrial F1-ATPase ε subunit (natural protein)
chain: MVAYWRQAGLSYIRYSQICAKAVRDALKTEFKANAMKTSGSTIKIVKVKKE
